Laboratory results as given in patent US10239925B2, “Peptides and combination of peptides for use in immunotherapy against ovarian cancer and other cancers” (IMMATICS BIOTECHNOLOGIES GMBH, priority 2015, dated 2019).

Target: HLA-A*02:01 (Homo sapiens, UniProt P04439, D140Y/D185E/D98H/E176V/E277Q/G131W/G231S/I119V/I121R/I166T/I218V/L300P/L318F/N151K/N90K/P208A/P217A/Q86G/Q94H/R138H/R169H/T345S)
Assay: MHC binding assay (UV-ligand exchange, anti-β2m ELISA, peptide exchange yield)
Conditions: binding to HLA-A*02:01
Method in brief: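 Peptide-MHC complexes formed by UV-ligand exchange, cleaving a UV-sensitive placeholder peptide in favour of the test peptide. Exchange yield measured by ELISA: monomers diluted 100-fold onto streptavidin-coated plates, 1 h 37 °C, detected with 2 ug/ml HRP anti-β2m and TMB, absorbance at 450 nm.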

Substance | Peptide exchange (MHC class I binding score, peptide exchange yield)
567 (SLLPLDDIVRV; listed as Homo sapiens) [compound 567] | “+++” (>50 = +++)
570 (ALANQIPTV; listed as Homo sapiens) [compound 570] | “++” (>20% = ++)
573 (ILVANAIVGV; listed as Homo sapiens) [compound 573] | “+++” (>50 = +++)
578 (FLDPGGPMMKL; listed as Homo sapiens) [compound 578] | “+++” (>50 = +++)
579 (NLMEMVAQL; listed as Homo sapiens) [compound 579] | “++” (>20% = ++)
584 (ALAEVAAMENV; listed as Homo sapiens) [compound 584] | “+++” (>50 = +++)
589 (KLYPQLPAEI; listed as Homo sapiens) [compound 589] | “+++” (>50 = +++)
590 (SLIEKLWQT; listed as Homo sapiens) [compound 590] | “++” (>20% = ++)
591 (SMAELDIKL; listed as Homo sapiens) [compound 591] | “+++” (>50 = +++)
593 (GLPRFGIEMV; listed as Homo sapiens) [compound 593] | “+++” (>50 = +++)
594 (IMLKGDNITL; listed as Homo sapiens) [compound 594] | “+++” (>50 = +++)
598 (FLFPHSVLV; listed as Homo sapiens) [compound 598] | “+++” (>50 = +++)
600 (ALAAPDIVPAL; listed as Homo sapiens) [compound 600] | “+++” (>50 = +++)
602 (YLLEQIKLIEV; listed as Homo sapiens) [compound 602] | “++++” (>75% = ++++)
604 (SILDRDDIFV; listed as Homo sapiens) [compound 604] | “+++” (>50 = +++)
606 (ALWETEVYI; listed as Homo sapiens) [compound 606] | “+++” (>50 = +++)
609 (ALWKQLLEL; listed as Homo sapiens) [compound 609] | “+++” (>50 = +++)
611 (YLLDDGTLVV; listed as Homo sapiens) [compound 611] | “++++” (>75% = ++++)
612 (YLYNEGLSV; listed as Homo sapiens) [compound 612] | “+++” (>50 = +++)
613 (RLLPPGAVVAV; listed as Homo sapiens) [compound 613] | “+++” (>50 = +++)
614 (LLLPDQPPYHL; listed as Homo sapiens) [compound 614] | “+++” (>50 = +++)
616 (VLIDEVESL; listed as Homo sapiens) [compound 616] | “+++” (>50 = +++)
617 (ALMYESEKVGV; listed as Homo sapiens) [compound 617] | “+++” (>50 = +++)

Next, values leading:

Peptide exchange (MHC class I binding score, peptide exchange yield) | Substance
“++” (>20% = ++) | 566 (VIADGGIQNV; listed as Homo sapiens) [compound 566]
“++++” (>75% = ++++) | 568 (TLYDIAHTPGV; listed as Homo sapiens) [compound 568]
“+++” (>50 = +++) | 569 (KLVDRTWTL; listed as Homo sapiens) [compound 569]
“+++” (>50 = +++) | 571 (LLLTTIPQI; listed as Homo sapiens) [compound 571]
“+++” (>50 = +++) | 572 (ALADLIEKELSV; listed as Homo sapiens) [compound 572]
“++” (>20% = ++) | 574 (YLLQEPPRTV; listed as Homo sapiens) [compound 574]
“+++” (>50 = +++) | 575 (YLISQVEGHQV; listed as Homo sapiens) [compound 575]
“++++” (>75% = ++++) | 576 (ILLNNSGQIKL; listed as Homo sapiens) [compound 576]
“+++” (>50 = +++) | 577 (VMFEDGVLMRL; listed as Homo sapiens) [compound 577]
“++” (>20% = ++) | 580 (LLMENAERV; listed as Homo sapiens) [compound 580]
“+++” (>50 = +++) | 582 (TLCDVILMV; listed as Homo sapiens) [compound 582]
“+++” (>50 = +++) | 583 (ILANDGVLLAA; listed as Homo sapiens) [compound 583]
“++++” (>75% = ++++) | 585 (ALWDLAADKQTL; listed as Homo sapiens) [compound 585]
“+++” (>50 = +++) | 586 (KLKPGDLVGV; listed as Homo sapiens) [compound 586]
“+++” (>50 = +++) | 587 (VMNDRLYAI; listed as Homo sapiens) [compound 587]
“+++” (>50 = +++) | 588 (SLLPLSHLV; listed as Homo sapiens) [compound 588]
“+++” (>50 = +++) | 592 (RLLSAAENFL; listed as Homo sapiens) [compound 592]
“+++” (>50 = +++) | 595 (VLLSIYPRV; listed as Homo sapiens) [compound 595]
“+++” (>50 = +++) | 596 (ALLDQTKTLAESAL; listed as Homo sapiens) [compound 596]
“+++” (>50 = +++) | 597 (KLLEGQVIQL; listed as Homo sapiens) [compound 597]
“+++” (>50 = +++) | 599 (YLLNDASLISV; listed as Homo sapiens) [compound 599]
“+++” (>50 = +++) | 601 (SAFPFPVTV; listed as Homo sapiens) [compound 601]
“+++” (>50 = +++) | 605 (KLYEAVPQL; listed as Homo sapiens) [compound 605]
“+++” (>50 = +++) | 607 (RLYSGISGLEL; listed as Homo sapiens) [compound 607]
“+++” (>50 = +++) | 608 (SLLSVSHAL; listed as Homo sapiens) [compound 608]
“+++” (>50 = +++) | 610 (LLAPTPYIIGV; listed as Homo sapiens) [compound 610]
“++” (>20% = ++) | 615 (VLPPDTDPA; listed as Homo sapiens) [compound 615]
